Test results published in patent publication US20140287419A1, “Compositions Having Dicamba Decarboxylase Activity and Methods of Use” (priority 2013, published 2014).
Entries after “also recorded” stand apart in the source; their conditions may differ.

Columns and labels:
[1] = 14C assay with IPTG-induced recombinant E. coli cells (14CO2 capture from [14C]-carboxyl-labeled dicamba); conditions: for Dicamba Decarboxylase Activity: IPTG-induced recombinant E. coli cells, [14C]-carboxyl-labeled dicamba, 14CO2 capture; for Enzymatic Detection level: dicamba decarboxylation activity of the protein of the given SEQ ID NO
[2] = Dicamba decarboxylation activity of computationally designed protein variants; conditions: native protein or designed variant versus parent

B1: 23 (protein, listed as Aplysina aerophoba)
chain: MAIDIDARSQPGLETARRAMSRRDFLGGAAAFGITAAATTALPASTAAGEEEDLFLLGLEEHFATAELRRLNGIQFPQGTPRFDINDVGAGRIADMDAAGIDIQVLSALTPGAQNLPGAEGVAYARRLNSWVAHEVIPAYPGRFRAFATLPLSEPQAAADELEYAVRELGFLGCMTYGAVDGKFLDHADFVPVLARAETLDVPIYIHPNWASPQVMDTYYNGLGNEWVSRVLSGAGYGWHQEVALQCLRMIASGVFDRFPRLQIIVGHMGEGLPFFYWRFGDDLARITADTLEKPVQQYFHDNFWITTSAFFRDELLRLVLSVMGEDRVMFAVDYPFVSNKVGADWFRAVDLPRNVKEKIAHKNAERLLKIGPF
- Dicamba Decarboxylase Activity [1]: Low
- Enzymatic Detection level [1]: Low

B2: SEQ ID NO:95: Alpha-Amino-Beta-Carboxymuconate-Epsilon-Semialdehyde-Decarboxylase, Pseudomonas fluorescens (protein, listed as Pseudomonas fluorescens)
chain: MAKKPRIDMHSHFFPRISEQEAAKFDANHAPWLQVSAKGDTGSIMMGKNNFRPVYQALWDPAFRIEEMDAQGVDVQVTCATPVMFGYTWEANKAAQWAERMNDFALEFAAHNPQRIKVLAQVPLQDLDLACKEASRAVAAGHLGIQIGNHLGDKDLDDATLEAFLTHCANEDIPILVHPWDMMGGQRMKKWMLPWLVAMPAETQLAILSLILSGAFERIPKSLKICFGHGGGSFAFLLGRVDNAWRHRDIVREDCPRPPSEYVDRFFVDSAVFNPGALELLVSVMGEDRVMLGSDYPFPLGEQKIGGLVLSSNLGESAKDKIISGNASKFFNINV
- Dicamba Decarboxylase Activity [2]: not active for dicamba decarboxylation; also recorded: Neither of the native proteins have dicamba decarboxylase activity

B3: 28 (protein, listed as Sphingomonas paucimobilis)
chain: MARLIATEEAVTFQPVVDALRAHSRTDDASLDMILVRDVYGDEPARPAMIGRLSDVTGERLAEMDSNGVDMHLLSLTAPGVQMFDAETGTRLARIANDLMAQTVAANPTRFAGLGTFAPQDPASAAREIERVATQLRLNGLVINSHTNDLYYDDPFFHPVFEAIEASGLALYIHPRAPSKQIDRAFRDYGMNSAIWGYGIETSTNAVRMILSGLFDRFPRLKIVLGHMGEAIPFWLWRLDYMHGNATTFGGAPKLKLKPSEYFRRNFAITTSGVESHAALRYSIEVLGPENVMWAIDYPYQPMAPAVQFIRTAPIPEDVKAMVAGGNAARIFRIT
- Dicamba Decarboxylase Activity [1]: High
- Enzymatic Detection level [1]: High

B4: 22 (protein, listed as Staphylococcus epidermidis)
chain: MAKSINFEEHYVVDDIQKETMKYMSSDPNGVPMQTMLKGLEQKSGFTNADDITKHDERIKFMDEHDVEMQVLSYGNGAPSNLEGERAIELCQQANDTLAKYVNEHPDRFVGFATLPINEPQAAVEEFKRCIKELGFKGALIMGHPKNGFLDQDQYDDLFATAEALNVPIYLHPSPVQSDVYQAYYKGNYSDVTAATFACFGYGWHVDVGIHAIHLVLSGVFDRHPNLNMIIGHWGEFVPFFLERMDDILFADHLEHPISYYFKNNFYITPSGMLTKPQFDLVKAEVGVDRILYSADYPYVEPDKLGTFLDELDLTEEEKEKISYKNGAKLLGLEK
- Dicamba Decarboxylase Activity [1]: High
- Enzymatic Detection level [1]: High

B5: 25 (protein, listed as Acidovorax avenae)
chain: MAQGKIGLEEHFAIPETLQDSAGFVPGDYWKELSLRLLDIHERRLREMDENGMEMMILSLNAPAVQAIPDTKKAVEIAVRANDFLAEQVARRPDRFQAFAALPMQDPDLATRELERCMQDLGFRGALVNGFSQVGTPENVVYYDAPQYGDFWAAVERLDAPFYLHPRNPIASWAQIYQGHPWLMGPTWAFAQETAVHALRLMASGLFDRHPGLRIILGHLGEGLPYNMWRVDHRNAWVDMPKGYPAKRKLCDYFHENFYLTTSGNFRTQTLIDALLEVGADRILFSTDWPFENVDHAAHWFDDAAISEADRLKIGRTNALSLFKLPQG
- Dicamba Decarboxylase Activity [1]: Low
- Enzymatic Detection level [1]: Low

B6: 27 (protein, listed as Aspergillus oryzae)
chain: MALGKIALEEAFALPRFEEKTRWWASLFSTDAETHVKEITDINKIRIEHADKHGVGYQILSYTAPGVQDIWDPVEAQALAVEINDYIAEQVRVNPDRFGAFATLSMHNPKEAADELRRCVEKYGFKGALVNDTQRAGPDGDDMIFYDNADWDIFWQTCTELDVPFYMHPRNPTGTIYEKLWADRKWLVGPPLSFAHGVSLHVLGMVTNGVFDRHPKLQIIMGHLGEHVPFDMWRINHWFEDRKKLLGLAETCKKTIRDYFAENIWITTSGHFSTTTLNFCMAEVGSDRILFSIDYPFETFSDACEWFDNAELNGTDRLKIGRENAKKLFKLDSYKDSSA
- Dicamba Decarboxylase Activity [1]: No
- Enzymatic Detection level [1]: No

B7: 2 (protein, listed as Serratia sp.)
chain: MAKIICLEEHTLDKALVMASMPAALEQAPFLSDWGKTVTDGNLPDRSRPQIEKNDLINIKGADIGRGRLDDMDVAGITMQVLSVGGFPHLISAAEGVDLNRAANDRLADAVNAHPDRFAAFATLPWAQPDSAEKELERAVKELGFKGALLNGRPSTHFLDHPDYDGLLARFNALGVPLYLHPGLPVRSVQQAYYGGFSDEVTARLSMFGWGWHHEAGIHLLRLILSGAFDKYPNLQVISGHWGEMLPFWLQRLDDSLPQAATGLRRTIAQTFKEQVYVTPSGMLTLPHFQFIYALLGAERIIFSVDYPYQTLDGVKAFIQSLPVPEEAKEAIAFRNAERLLGLTS
- Dicamba Decarboxylase Activity [1]: High
- Enzymatic Detection level [1]: High

B8: 24 (protein)
chain: MALGKVVLEEAYERPNMKEKSNHEAGLYIAPNDRPRYMRQINDINQERLKLADAHGVGYTIISLTVPGIQGIFDKTEAERVATETNNWAAEQIKNHRDRLGAFACLSMHDPAQAANELRRCVQELGFHGALLCSFQHAGPDGETYLFYDQPKYDVFWKALTELDVPLYIHPAAPTGSILERLYAQRPALIGPPLSFANDVSLHTLGIISNGVFDRFPNLKIIIGHLGEHIPFDFWRIDHWFRDVKKPIADEEGRVMAQKSLYHYFKHNIWLTTSGHFSTPTLKYVVNEIGVDRVLFSVDYPYETTESGCNWWDHDKDAIVEAVGGVDNYYAIGRENAKKLLRLDKFHDSDAR
modifications: Aspergillus niger
- Dicamba Decarboxylase Activity [1]: Low
- Enzymatic Detection level [1]: Low

B9: 31 (protein, listed as Agrobacterium sp.)
chain: MAQGKVALEEHFAIPETLQDSAGFVPGDYWKELQHRLLDIQDTRLKLMDAHGIETMILSLNAPAVQAIPDKTKAIEIARRANDVLAEECAKRPDRFLAFAALPLQDPDAATEELQRCVNDLGFVGALVNGFSQEGDGQTPLYYDLPQYRPFWGEVEKLDVPFYLHPRNPLPQDSRIYDGHPWLLGPTWAFAQETAVHALRLMASGLFDEHPRLNIILGHMGEGLPYMMWRIDHRNAWVKLPPRYPAKRRFMDYFNENFHITTSGNFRTQTLIDAILEIGADRILFSTDWPFENIDHASDWFNATSIAEADRVKIGRTNARRLFKLDGA
- Dicamba Decarboxylase Activity [1]: High
- Enzymatic Detection level [1]: High

B10: 32 (protein)
chain: MARIIAIEEHFLDLDIARASRPEAERLSPAFAAAYGAGQGYNYSPAPEVLLDLEEGRVADMDAHGISMQVLSSLSTQQLPADVAVELVRKVNDRAAAAVAARPDRFAAFAALPTTVPEAAADELDRAVGELGFVGSMINGRTGDAFLDAPRFDAVLRRSAELRVPVYLHPGVPPVETSRSNYEGGLDPIVTARLQTSAWGWHVETGIHFLHLVLAGVFDRYPDLQVILGHWGEMVPFFLERIEEALPQQITHLDRPVGAYFRENAHITPSGMFSQAQLQFCVETVGIERIMFSVDYPFLGNDGAEAFLRQANLPPLATEKIAHLNAERLLALPS
modifications: Streptomyces violaceusniger
- Dicamba Decarboxylase Activity [1]: High
- Enzymatic Detection level [1]: High

B11: 29 (protein, listed as Pseudovibrio sp.)
chain: MAGRRDFLRKSVAAGVGLTAAAQLSAGGAQATVPDTSNIPLITLEEHFTTPELQSKNTSGDKRLFSGGGSRPELLDVGAGRIADMDEAGIDIQVLSTVTPGASKITGAEGVEFTRKFNTWIAEEVIAAYPNRFRAFATLPLSSPEAAADELERSVREYGFVGTMTYGPIDGKFLDHADYAPLLARAEALGVPIYIHPNWPSPTAMQAYYDGLGDDLTSRILSGPGYGWHQEIAVQCLRLIVGGVFDRFPNLQIVVGHMGEGLPFYYWRVGEDLDRIAQKRLQKPVQQYFHDNLWITTSAFFRDELLNLALATMGEDRVMFSVDYPMASAKVGADWLRAADIPLATKEKIGSKNAMKLLGIDKI
- Dicamba Decarboxylase Activity [1]: No
- Enzymatic Detection level [1]: No

B12: 30 (protein)
chain: MARGKIALEEHVSTPENNRLWDSTGEANRNGSEYMQDVERRLLDRSIQLEEMAQRNIDHVILSLTSPGAQSILDKAKAVSFARDTNDFIVDNYVKPNPDKFSAFATLALQNPEAAAEELERAVKKLGMKGALINGYTNVKDSEHGLYLDDESMLVFWDKVNELNVPVYLHPREPLEGPARGIYTGYESLIGSAWGFAQETAVHAIRLMMSGLFDRYPNLNLVLGHLGEGLVHMLPRTQHRLYRQRFGCGLGKAEKPLMHYLQNNFIVTTSGHFNTHSLNNAIEVMGADRVMFSVDYPYEDIHQACDWFDPLEMDEGLKEKIAWGNASRVFNIK
modifications: Enterobacter aerogenes
- Dicamba Decarboxylase Activity [1]: High
- Enzymatic Detection level [1]: High

B13: 26 (protein, listed as Variovorax paradoxus)
chain: MATHMAPMKNKIALEEHFAIDLTIADSQVYARPEVWQGLKSNLLDFEQQRLEKMDEWGTEFSILSLNSPAVQGIPDAKRAIEVAQRANDVLAEQVKRHPTRFGGFAALPMQDPEASARELERCVNQLGFHGFLVNGFSQVGDENIVVYYDDARFNDFWTAAAALKKPFYMHPRDPLLAREPIYDGAHWLTGPTWAFAMETAIHALRLMSSGMFDRHPALQMILGHFGEGIPFNIWRVDHILRKGRRGMPCDKEIGEYLRSNVHITTSGNFRTPTLLSTMLEVGSDRIMYSVDYPFEKHEDAARWFDTCEISENDRQKIGRDNARKLFGLK
- Dicamba Decarboxylase Activity [1]: High
- Enzymatic Detection level [1]: High
